Results published in US20220025021A1 (BETH ISRAEL DEACONESS MEDICAL CENTER, published 2022).
Changes are numbered by the printed parent chain.

B1: MS-71 (antibody)
VH: not shown
VL: DFVLTQSPHSLSVTPGESASISCKSSHSLIHGDRNNYLAWYVQKPGRSPQLLIYLASSRASGVPDRFSGSGSGKDFTLKISRVETEDVGTYYCMQGRESPWTFGQGTKVDIKRTVAAPSVFIFPPSDEQLKSGTASVVCLLNNFYPREAKVQWKVDNALQSGNSQESVTEQDSKDSTYSLSSTLTLSKADYEKHKVYACEVTHQGLSSPVTKSFNRGEC
B2: MS-73 (antibody)
VH: not shown
VL: B1 VL with G73D, T85A
B3: MS-72 (antibody, V domains shown)
VH: QVQLVQSGPEVRKPGTSVKVSCKAPGNTLKTYDLHWVRSVPGQGLQWMGWISHEGDKKVIVERFKAKVTIDWDRSTNTAYLQLSGLTSGDTAVYYCAKGSKHRLRDYALYDDDGALNWAVDVDYLSNLEFWGQGTAVTVSS
VL: DFVLTQSPHSLSVTPGESASISCKSSHSLIHGDRNNYLAWYVQKPGRSPQLLIYLASSRASGVPDRFSGSGSDTDFTLKISRVETEDVGTYYCMQGRESPWTFGQGTKVDIKR
B4: MS-81 (antibody, V domains shown)
VH: B3 VH with Q82E
VL: B3 VL with T74K
B5: MS-83 (antibody, V domains shown)
VH: B3 VH with D113E
VL: B3 VL with T74K
B6: MS-76 (antibody, V domains shown)
VH: B3 VH with N27Y
VL: B3 VL with T74K
B7: MS-80 (antibody, V domains shown)
VH: B3 VH with W72R
VL: B3 VL with T74K
B8: MS-75 (antibody, V domains shown)
VH: B3 VH with P25S
VL: B3 VL with T74K
B9: MS-78 (antibody, V domains shown)
VH: B3 VH with Q46E
VL: B3 VL with T74K
B10: MS-74 (antibody, V domains shown)
VH: B3 VH
VL: B3 VL with T74K, T90V
B11: MS-77 (antibody, V domains shown)
VH: B3 VH with L29F
VL: B3 VL with T74K
B12: MS-79 (antibody, V domains shown)
VH: B3 VH with D71T
VL: B3 VL with T74K
B13: MS-82 (antibody, V domains shown)
VH: B3 VH with T87R
VL: B3 VL with T74K

Experiments:
Assay in all cases: cell-based or functional assay
[1] = biological target: HIV-1 pseudovirus Ce1176_A3 (HIV-1)
[2] = biological target: HIV-1 pseudovirus AC10.0.29 (HIV-1)
[3] = biological target: HIV-1 pseudovirus X1193_c1 (HIV-1)
[4] = biological target: HIV-1 pseudovirus SC05.8C11.2344 (HIV-1)
HIV-1 pseudovirus 263-8 = HIV-1 pseudovirus 263-8 (HIV-1)
[5] = biological target: HIV-1 pseudovirus 6952.v1.c20 (HIV-1)

| Binder | IC50 (neutralization in TZM.bl cells) [1] [mg/L] | IC80 (neutralization in TZM.bl cells) [1] [mg/L] | IC50 (neutralization in TZM.bl cells) [2] [mg/L] | IC80 (neutralization in TZM.bl cells) [2] [mg/L] | IC50 (neutralization in TZM.bl cells) [3] [mg/L] | IC80 (neutralization in TZM.bl cells) [3] [mg/L] | IC50 (neutralization in TZM.bl cells) [4] [mg/L] | IC80 (neutralization in TZM.bl cells) [4] [mg/L] | IC50 (neutralization in TZM.bl cells) (HIV-1 pseudovirus 263-8) [mg/L] | IC80 (neutralization in TZM.bl cells) (HIV-1 pseudovirus 263-8) [mg/L] | IC50 (neutralization in TZM.bl cells) [5] [mg/L] | IC80 (neutralization in TZM.bl cells) [5] [mg/L] |
| --- | --- | --- | --- | --- | --- | --- | --- | --- | --- | --- | --- | --- |
| B1 | 0.04 | 0.796 | 0.035 | 0.177 | 0.072 | 0.265 | 0.425 | 1.41 | 0.014 | 0.041 | 0.325 | 7.92 |
| B2 | 0.035 | 0.581 | 0.041 | 0.206 | 0.085 | 0.327 | 0.461 | 1.62 | 0.01 | 0.032 | 0.222 | 6.99 |
| B3 | 0.074 | 1.3 | 0.051 | 0.255 | 0.072 | 0.258 | 0.791 | 2.85 | 0.02 | 0.057 | 0.643 | 12.4 |
| B4 | 0.044 | 0.646 | 0.044 | 0.324 | 0.113 | 0.512 | 0.537 | 2.01 | 0.013 | 0.037 | 0.228 | > 25 |
| B5 | 0.029 | 0.405 | 0.038 | 0.259 | 0.061 | 0.308 | 0.381 | 1.88 | 0.007 | 0.05 | 0.126 | 3.09 |
| B6 | 0.082 | 1.63 | 0.047 | 0.368 | 0.126 | 0.575 | 0.587 | 2.57 | 0.015 | 0.053 | 0.844 | > 25 |
| B7 | 1.11 | > 25 | 0.054 | 0.28 | 0.137 | 0.607 | 0.898 | 3.15 | 0.033 | 0.173 | > 25 | > 25 |
| B8 | 0.139 | 2.79 | 0.055 | 0.442 | 0.174 | 0.591 | 0.792 | 3.72 | 0.018 | 0.086 | 0.977 | > 25 |
| B9 | 0.047 | 0.837 | 0.044 | 0.225 | 0.126 | 0.452 | 0.658 | 2.26 | 0.014 | 0.053 | 0.342 | > 25 |
| B10 | 0.028 | 0.564 | 0.041 | 0.216 | 0.086 | 0.296 | 0.415 | 1.94 | 0.013 | 0.037 | 0.285 | 15.1 |
| B11 | 0.067 | 1.12 | 0.036 | 0.311 | 0.109 | 0.398 | 0.516 | 2.41 | 0.012 | 0.033 | 0.236 | 6.74 |
| B12 | 0.473 | 9.05 | 0.056 | 0.404 | 0.109 | 0.365 | 0.593 | 1.97 | 0.018 | 0.067 | 13.2 | > 25 |
| B13 | 0.023 | 0.635 | 0.05 | 0.267 | 0.084 | 0.411 | 0.502 | 1.8 | 0.011 | 0.033 | 0.212 | 23 |
